Results: patent US20210388087A1 (Chugai, published 2021)

Each binder was assayed against T1, CD3 epsilon homodimer protein (UniProt P07766 23-126) (assay: SPR, CD3 epsilon homodimer on chip, one-arm antibody as analyte;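 also: surface plasmon resonance at 25 °C with CD3 epsilon homodimer amine-coupled to a CM4 sensor chip, antibody injected as analyte, HBS-EP+ as running buffer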).
T1 construct: also called CD3 (CD3 epsilon)
T1 sequence (P07766 23-126): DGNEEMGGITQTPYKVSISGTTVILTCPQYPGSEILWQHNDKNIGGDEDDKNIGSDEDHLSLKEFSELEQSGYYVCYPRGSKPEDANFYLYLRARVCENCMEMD

Binder | KD ratio (KD of CE115HA000/KD of altered form)
CE115HA000 Y58A (antibody, human IgG1, kappa, L234A L235A, N297A, name in Kabat numbering, one-arm antibody) heavy: QVQLVESGGGVVQPGRSLRLSCAASGFTFSNAWMHWVRQAPGKGLEWVAQIKAKSNNYATAYAESVKGRFTISRDDSKNSLYLQMNSLKTEDTAVYYCRYVHYGAYYGVDAWGQGTTVTVSSASTKGPSVFPLAPSSKSTSGGTAALGCLVKDYFPEPVTVSWNSGALTSGVHTFPAVLQSSGLYSLSSVVTVPSSSLGTQTYICNVNHKPSNTKVDKKVEPKSCDKTHTCPPCPAPEAAGGPSVFLFPPKPKDTLMISRTPEVTCVVVDVSHEDPEVKFNWYVDGVEVHNAKTKPREEQYASTYRVVSVLTVLHQDWLNGKEYKCKVSNKALPAPIEKTISKAKGQPREPQVYTLPPSRCELTKNQVSLSCAVKGFYPSDIAVEWESNGQPENNYKTTPPVLDSDGSFFLVSKLTVDKSRWQQGNVFSCSVMHEALHNHYTQKSLSLSPDYKDDDDK EPKSSDKTHTCPPCPAPELLGGPSVFLFPPKPKDTLMISRTPEVTCVVVDVSHEDPEVKFNWYVDGVEVHNAKTKPREEQYNSTYRVVSVLTVLHQDWLNGKEYKCKVSNKALPAPIEKTISKAKGQPREPQVCTLPPSRDELTKNQVSLWCLVKGFYPSDIAVEWESNGQPENNYKTTPPVLDSDGSFFLYSKLTVDKSRWQQGNVFSCSVMHEALHNRYTQKSLSLSP light: DIVMTQSPLSLPVTPGEPASISCRSSQSLVHSNRNTYLHWYQQKPGQAPRLLIYKVSNRFSGVPDRFSGSGSGTDFTLKISRVEAEDVGVYYCGQGTQVPYTFGQGTKLEIKRTVAAPSVFIFPPSDEQLKSGTASVVCLLNNFYPREAKVQWKVDNALQSGNSQESVTEQDSKDSTYSLSSTLTLSKADYEKHKVYACEVTHQGLSSPVTKSFNRGEC | 1.06
CE115HA000 Y58D (antibody, human IgG1, kappa, L234A L235A, N297A, name in Kabat numbering, one-arm antibody) heavy: QVQLVESGGGVVQPGRSLRLSCAASGFTFSNAWMHWVRQAPGKGLEWVAQIKAKSNNYATDYAESVKGRFTISRDDSKNSLYLQMNSLKTEDTAVYYCRYVHYGAYYGVDAWGQGTTVTVSSASTKGPSVFPLAPSSKSTSGGTAALGCLVKDYFPEPVTVSWNSGALTSGVHTFPAVLQSSGLYSLSSVVTVPSSSLGTQTYICNVNHKPSNTKVDKKVEPKSCDKTHTCPPCPAPEAAGGPSVFLFPPKPKDTLMISRTPEVTCVVVDVSHEDPEVKFNWYVDGVEVHNAKTKPREEQYASTYRVVSVLTVLHQDWLNGKEYKCKVSNKALPAPIEKTISKAKGQPREPQVYTLPPSRCELTKNQVSLSCAVKGFYPSDIAVEWESNGQPENNYKTTPPVLDSDGSFFLVSKLTVDKSRWQQGNVFSCSVMHEALHNHYTQKSLSLSPDYKDDDDK EPKSSDKTHTCPPCPAPELLGGPSVFLFPPKPKDTLMISRTPEVTCVVVDVSHEDPEVKFNWYVDGVEVHNAKTKPREEQYNSTYRVVSVLTVLHQDWLNGKEYKCKVSNKALPAPIEKTISKAKGQPREPQVCTLPPSRDELTKNQVSLWCLVKGFYPSDIAVEWESNGQPENNYKTTPPVLDSDGSFFLYSKLTVDKSRWQQGNVFSCSVMHEALHNRYTQKSLSLSP light: DIVMTQSPLSLPVTPGEPASISCRSSQSLVHSNRNTYLHWYQQKPGQAPRLLIYKVSNRFSGVPDRFSGSGSGTDFTLKISRVEAEDVGVYYCGQGTQVPYTFGQGTKLEIKRTVAAPSVFIFPPSDEQLKSGTASVVCLLNNFYPREAKVQWKVDNALQSGNSQESVTEQDSKDSTYSLSSTLTLSKADYEKHKVYACEVTHQGLSSPVTKSFNRGEC | 4.81
CE115HA000 Y58K (antibody, human IgG1, kappa, L234A L235A, N297A, name in Kabat numbering, one-arm antibody) heavy: QVQLVESGGGVVQPGRSLRLSCAASGFTFSNAWMHWVRQAPGKGLEWVAQIKAKSNNYATKYAESVKGRFTISRDDSKNSLYLQMNSLKTEDTAVYYCRYVHYGAYYGVDAWGQGTTVTVSSASTKGPSVFPLAPSSKSTSGGTAALGCLVKDYFPEPVTVSWNSGALTSGVHTFPAVLQSSGLYSLSSVVTVPSSSLGTQTYICNVNHKPSNTKVDKKVEPKSCDKTHTCPPCPAPEAAGGPSVFLFPPKPKDTLMISRTPEVTCVVVDVSHEDPEVKFNWYVDGVEVHNAKTKPREEQYASTYRVVSVLTVLHQDWLNGKEYKCKVSNKALPAPIEKTISKAKGQPREPQVYTLPPSRCELTKNQVSLSCAVKGFYPSDIAVEWESNGQPENNYKTTPPVLDSDGSFFLVSKLTVDKSRWQQGNVFSCSVMHEALHNHYTQKSLSLSPDYKDDDDK EPKSSDKTHTCPPCPAPELLGGPSVFLFPPKPKDTLMISRTPEVTCVVVDVSHEDPEVKFNWYVDGVEVHNAKTKPREEQYNSTYRVVSVLTVLHQDWLNGKEYKCKVSNKALPAPIEKTISKAKGQPREPQVCTLPPSRDELTKNQVSLWCLVKGFYPSDIAVEWESNGQPENNYKTTPPVLDSDGSFFLYSKLTVDKSRWQQGNVFSCSVMHEALHNRYTQKSLSLSP light: DIVMTQSPLSLPVTPGEPASISCRSSQSLVHSNRNTYLHWYQQKPGQAPRLLIYKVSNRFSGVPDRFSGSGSGTDFTLKISRVEAEDVGVYYCGQGTQVPYTFGQGTKLEIKRTVAAPSVFIFPPSDEQLKSGTASVVCLLNNFYPREAKVQWKVDNALQSGNSQESVTEQDSKDSTYSLSSTLTLSKADYEKHKVYACEVTHQGLSSPVTKSFNRGEC | 0.66
CE115HA000 Y58L (antibody, human IgG1, kappa, L234A L235A, N297A, name in Kabat numbering, one-arm antibody) heavy: QVQLVESGGGVVQPGRSLRLSCAASGFTFSNAWMHWVRQAPGKGLEWVAQIKAKSNNYATLYAESVKGRFTISRDDSKNSLYLQMNSLKTEDTAVYYCRYVHYGAYYGVDAWGQGTTVTVSSASTKGPSVFPLAPSSKSTSGGTAALGCLVKDYFPEPVTVSWNSGALTSGVHTFPAVLQSSGLYSLSSVVTVPSSSLGTQTYICNVNHKPSNTKVDKKVEPKSCDKTHTCPPCPAPEAAGGPSVFLFPPKPKDTLMISRTPEVTCVVVDVSHEDPEVKFNWYVDGVEVHNAKTKPREEQYASTYRVVSVLTVLHQDWLNGKEYKCKVSNKALPAPIEKTISKAKGQPREPQVYTLPPSRCELTKNQVSLSCAVKGFYPSDIAVEWESNGQPENNYKTTPPVLDSDGSFFLVSKLTVDKSRWQQGNVFSCSVMHEALHNHYTQKSLSLSPDYKDDDDK EPKSSDKTHTCPPCPAPELLGGPSVFLFPPKPKDTLMISRTPEVTCVVVDVSHEDPEVKFNWYVDGVEVHNAKTKPREEQYNSTYRVVSVLTVLHQDWLNGKEYKCKVSNKALPAPIEKTISKAKGQPREPQVCTLPPSRDELTKNQVSLWCLVKGFYPSDIAVEWESNGQPENNYKTTPPVLDSDGSFFLYSKLTVDKSRWQQGNVFSCSVMHEALHNRYTQKSLSLSP light: DIVMTQSPLSLPVTPGEPASISCRSSQSLVHSNRNTYLHWYQQKPGQAPRLLIYKVSNRFSGVPDRFSGSGSGTDFTLKISRVEAEDVGVYYCGQGTQVPYTFGQGTKLEIKRTVAAPSVFIFPPSDEQLKSGTASVVCLLNNFYPREAKVQWKVDNALQSGNSQESVTEQDSKDSTYSLSSTLTLSKADYEKHKVYACEVTHQGLSSPVTKSFNRGEC | 1.21

Now from value to binder:

KD ratio (KD of CE115HA000/KD of altered form) | Binder
1.86 | CE115HA000 Y58N (antibody, human IgG1, kappa, L234A L235A, N297A, name in Kabat numbering, one-arm antibody) heavy: QVQLVESGGGVVQPGRSLRLSCAASGFTFSNAWMHWVRQAPGKGLEWVAQIKAKSNNYATNYAESVKGRFTISRDDSKNSLYLQMNSLKTEDTAVYYCRYVHYGAYYGVDAWGQGTTVTVSSASTKGPSVFPLAPSSKSTSGGTAALGCLVKDYFPEPVTVSWNSGALTSGVHTFPAVLQSSGLYSLSSVVTVPSSSLGTQTYICNVNHKPSNTKVDKKVEPKSCDKTHTCPPCPAPEAAGGPSVFLFPPKPKDTLMISRTPEVTCVVVDVSHEDPEVKFNWYVDGVEVHNAKTKPREEQYASTYRVVSVLTVLHQDWLNGKEYKCKVSNKALPAPIEKTISKAKGQPREPQVYTLPPSRCELTKNQVSLSCAVKGFYPSDIAVEWESNGQPENNYKTTPPVLDSDGSFFLVSKLTVDKSRWQQGNVFSCSVMHEALHNHYTQKSLSLSPDYKDDDDK EPKSSDKTHTCPPCPAPELLGGPSVFLFPPKPKDTLMISRTPEVTCVVVDVSHEDPEVKFNWYVDGVEVHNAKTKPREEQYNSTYRVVSVLTVLHQDWLNGKEYKCKVSNKALPAPIEKTISKAKGQPREPQVCTLPPSRDELTKNQVSLWCLVKGFYPSDIAVEWESNGQPENNYKTTPPVLDSDGSFFLYSKLTVDKSRWQQGNVFSCSVMHEALHNRYTQKSLSLSP light: DIVMTQSPLSLPVTPGEPASISCRSSQSLVHSNRNTYLHWYQQKPGQAPRLLIYKVSNRFSGVPDRFSGSGSGTDFTLKISRVEAEDVGVYYCGQGTQVPYTFGQGTKLEIKRTVAAPSVFIFPPSDEQLKSGTASVVCLLNNFYPREAKVQWKVDNALQSGNSQESVTEQDSKDSTYSLSSTLTLSKADYEKHKVYACEVTHQGLSSPVTKSFNRGEC
1.24 | CE115HA000 Y58Q (antibody, human IgG1, kappa, L234A L235A, N297A, name in Kabat numbering, one-arm antibody) heavy: QVQLVESGGGVVQPGRSLRLSCAASGFTFSNAWMHWVRQAPGKGLEWVAQIKAKSNNYATQYAESVKGRFTISRDDSKNSLYLQMNSLKTEDTAVYYCRYVHYGAYYGVDAWGQGTTVTVSSASTKGPSVFPLAPSSKSTSGGTAALGCLVKDYFPEPVTVSWNSGALTSGVHTFPAVLQSSGLYSLSSVVTVPSSSLGTQTYICNVNHKPSNTKVDKKVEPKSCDKTHTCPPCPAPEAAGGPSVFLFPPKPKDTLMISRTPEVTCVVVDVSHEDPEVKFNWYVDGVEVHNAKTKPREEQYASTYRVVSVLTVLHQDWLNGKEYKCKVSNKALPAPIEKTISKAKGQPREPQVYTLPPSRCELTKNQVSLSCAVKGFYPSDIAVEWESNGQPENNYKTTPPVLDSDGSFFLVSKLTVDKSRWQQGNVFSCSVMHEALHNHYTQKSLSLSPDYKDDDDK EPKSSDKTHTCPPCPAPELLGGPSVFLFPPKPKDTLMISRTPEVTCVVVDVSHEDPEVKFNWYVDGVEVHNAKTKPREEQYNSTYRVVSVLTVLHQDWLNGKEYKCKVSNKALPAPIEKTISKAKGQPREPQVCTLPPSRDELTKNQVSLWCLVKGFYPSDIAVEWESNGQPENNYKTTPPVLDSDGSFFLYSKLTVDKSRWQQGNVFSCSVMHEALHNRYTQKSLSLSP light: DIVMTQSPLSLPVTPGEPASISCRSSQSLVHSNRNTYLHWYQQKPGQAPRLLIYKVSNRFSGVPDRFSGSGSGTDFTLKISRVEAEDVGVYYCGQGTQVPYTFGQGTKLEIKRTVAAPSVFIFPPSDEQLKSGTASVVCLLNNFYPREAKVQWKVDNALQSGNSQESVTEQDSKDSTYSLSSTLTLSKADYEKHKVYACEVTHQGLSSPVTKSFNRGEC
